Test results as given in patent US20130074217A1 (NUTECH VENTURES, published 2013).

T1: EFR-YFPc / EFR-YFPn (Arabidopsis thaliana, UniProt C0LGT6 25-1031)
T1 construct: Two BiFC constructs used in both combinations, expressed in N. benthamiana leaves; not shown: split-YFP half (YFPc or YFPn) from the BiFC vector
T1 sequence (looked up): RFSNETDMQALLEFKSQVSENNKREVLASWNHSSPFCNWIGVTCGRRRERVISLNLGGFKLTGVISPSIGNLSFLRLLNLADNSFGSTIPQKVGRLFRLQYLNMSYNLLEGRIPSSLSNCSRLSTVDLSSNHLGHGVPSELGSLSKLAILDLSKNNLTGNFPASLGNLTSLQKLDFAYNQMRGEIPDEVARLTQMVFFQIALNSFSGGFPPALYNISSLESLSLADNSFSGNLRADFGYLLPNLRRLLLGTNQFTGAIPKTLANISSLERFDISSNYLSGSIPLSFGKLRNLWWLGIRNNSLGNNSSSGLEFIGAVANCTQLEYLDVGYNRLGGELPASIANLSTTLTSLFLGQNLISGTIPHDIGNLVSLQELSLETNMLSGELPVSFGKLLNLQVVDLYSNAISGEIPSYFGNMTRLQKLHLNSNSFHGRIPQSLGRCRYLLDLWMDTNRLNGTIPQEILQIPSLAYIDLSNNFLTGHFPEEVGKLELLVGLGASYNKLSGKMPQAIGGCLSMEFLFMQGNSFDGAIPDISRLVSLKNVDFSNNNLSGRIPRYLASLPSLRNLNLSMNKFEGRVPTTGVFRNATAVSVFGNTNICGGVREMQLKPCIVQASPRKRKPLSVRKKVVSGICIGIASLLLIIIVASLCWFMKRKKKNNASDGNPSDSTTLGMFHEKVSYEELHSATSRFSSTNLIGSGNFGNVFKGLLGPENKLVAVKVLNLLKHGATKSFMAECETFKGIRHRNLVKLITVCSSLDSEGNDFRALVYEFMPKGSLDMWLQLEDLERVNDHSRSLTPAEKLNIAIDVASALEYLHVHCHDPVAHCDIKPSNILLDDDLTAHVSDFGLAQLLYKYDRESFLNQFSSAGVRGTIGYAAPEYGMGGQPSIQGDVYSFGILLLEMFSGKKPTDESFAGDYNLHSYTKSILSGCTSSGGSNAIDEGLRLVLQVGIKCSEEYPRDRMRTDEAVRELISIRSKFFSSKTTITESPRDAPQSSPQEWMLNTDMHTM

T2: BAK1-HA (Arabidopsis thaliana, UniProt Q94F62 26-615)
T2 construct: Transiently expressed in N. benthamiana; also called LRR-RK BAK1; 35S::BAK1-HA; not shown: HA tag
T2 sequence (looked up): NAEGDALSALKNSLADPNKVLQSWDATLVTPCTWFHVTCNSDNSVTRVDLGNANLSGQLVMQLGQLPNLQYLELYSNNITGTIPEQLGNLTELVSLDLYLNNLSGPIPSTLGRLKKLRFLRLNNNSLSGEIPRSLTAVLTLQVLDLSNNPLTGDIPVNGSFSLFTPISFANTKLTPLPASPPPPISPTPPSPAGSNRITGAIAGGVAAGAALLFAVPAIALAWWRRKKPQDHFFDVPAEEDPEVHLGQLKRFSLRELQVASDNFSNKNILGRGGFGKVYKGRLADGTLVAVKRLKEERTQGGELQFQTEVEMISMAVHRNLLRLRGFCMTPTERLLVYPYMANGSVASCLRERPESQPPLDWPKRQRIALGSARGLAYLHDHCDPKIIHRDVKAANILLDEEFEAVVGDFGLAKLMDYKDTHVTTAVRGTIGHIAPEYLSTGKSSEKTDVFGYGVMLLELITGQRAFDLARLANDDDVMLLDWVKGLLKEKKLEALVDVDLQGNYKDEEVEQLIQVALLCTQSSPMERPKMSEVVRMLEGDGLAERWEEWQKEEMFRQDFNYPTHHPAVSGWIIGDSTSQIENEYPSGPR

B1: GRP7-YFPn / GRP7-YFPc (other)
chain: MASGDVEYRCFVGGLAWATDDRALETAFAQYGDVIDSKIINDRETGRSRGFGFVTFKDEKAMKDAIEGMNGQDLDGRSITVNEAQSRGSGGGGGHRGGGGGGYRSGGGGGYSGGGGSYGGGGGRREGGGGYSGGGGGYSSRGGGGGSYGGGRREGGGGYGGGEGGGYGGSGGGGGW
notes: Two BiFC constructs (N- or C-terminal YFP half) used in both combinations; Results are reported for them together; also called GRP7-YFPn/c; not shown: split-YFP half (YFPn or YFPc) from the pAM-PAT-35S BiFC vector
B2: GRP7-eGFP (other)
chain: B1 chain
notes: Transiently expressed in N. benthamiana under the 35S promoter; also called 35S::GRP7-eGFP; not shown: C-terminal enhanced green fluorescent protein (eGFP) tag

Columns and labels:
EFR-YFPc / EFR-YFPn = target: T1, EFR-YFPc / EFR-YFPn; test: bimolecular fluorescence complementation in N. benthamiana (panel B)
Protocol: Interaction assays were performed in presence or absence of the auxotrophic amino acid leucine (Leu). […] Scale bar corresponds to 20 μm. Photographs were taken 2 days after infiltration and are representative of the total observations (n=60). All results shown are representative of three independent experiments.

FLS2-YFPc / FLS2-YFPn = target: T3, FLS2-YFPc / FLS2-YFPn (Arabidopsis thaliana, UniProt Q9FL28 24-1173); test: bimolecular fluorescence complementation in N. benthamiana, with plasmolysis (panel E)
T3 construct: Two BiFC constructs used in both combinations, expressed in N. benthamiana leaves; not shown: split-YFP half (YFPc or YFPn) from the BiFC vector
T3 sequence (Q9FL28 24-1173): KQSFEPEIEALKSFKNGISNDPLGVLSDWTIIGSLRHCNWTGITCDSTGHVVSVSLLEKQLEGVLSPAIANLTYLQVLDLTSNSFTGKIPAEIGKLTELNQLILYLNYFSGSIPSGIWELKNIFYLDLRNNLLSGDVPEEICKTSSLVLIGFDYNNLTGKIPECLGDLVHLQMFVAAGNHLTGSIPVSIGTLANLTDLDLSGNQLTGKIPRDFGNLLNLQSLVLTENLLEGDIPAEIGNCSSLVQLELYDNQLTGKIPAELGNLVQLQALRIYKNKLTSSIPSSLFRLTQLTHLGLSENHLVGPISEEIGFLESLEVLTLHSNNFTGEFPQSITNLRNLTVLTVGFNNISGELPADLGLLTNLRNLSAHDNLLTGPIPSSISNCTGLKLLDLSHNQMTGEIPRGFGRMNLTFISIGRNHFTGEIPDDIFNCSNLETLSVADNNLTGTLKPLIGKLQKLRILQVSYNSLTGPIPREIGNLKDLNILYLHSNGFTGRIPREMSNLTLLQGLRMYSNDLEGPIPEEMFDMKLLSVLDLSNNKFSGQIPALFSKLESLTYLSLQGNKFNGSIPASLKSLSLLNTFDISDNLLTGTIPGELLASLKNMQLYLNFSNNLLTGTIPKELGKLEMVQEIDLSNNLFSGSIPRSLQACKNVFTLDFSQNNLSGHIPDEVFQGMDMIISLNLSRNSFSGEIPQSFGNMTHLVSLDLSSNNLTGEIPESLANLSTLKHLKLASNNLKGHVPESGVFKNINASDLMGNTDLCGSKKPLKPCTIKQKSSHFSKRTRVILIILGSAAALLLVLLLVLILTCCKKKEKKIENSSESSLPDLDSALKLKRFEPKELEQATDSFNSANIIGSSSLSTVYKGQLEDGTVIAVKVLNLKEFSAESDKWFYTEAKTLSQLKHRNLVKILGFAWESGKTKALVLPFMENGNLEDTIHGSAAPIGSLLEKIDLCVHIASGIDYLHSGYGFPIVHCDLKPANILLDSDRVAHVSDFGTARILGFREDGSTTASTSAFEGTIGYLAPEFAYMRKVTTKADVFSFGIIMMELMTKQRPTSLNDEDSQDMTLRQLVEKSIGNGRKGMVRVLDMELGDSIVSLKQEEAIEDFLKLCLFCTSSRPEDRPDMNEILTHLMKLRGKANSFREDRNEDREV

BAK1-HA = target: T2, BAK1-HA; test: co-immunoprecipitation with GFP Trap beads after transient co-expression in N. benthamiana
Protocol: Total proteins (input) were subjected to immunoprecipitation with GFP Trap beads followed by immunoblot analysis. […] Total proteins (input) were subjected to immunoprecipitation with GFP Trap beads followed by immunoblot analysis. […] All results shown are representative of three independent experiments.
Total proteins were extracted in a buffer including 100 mM Tris-HCl pH 7.5, 150 mM NaCl, 5 mM EDTA, 5% glycerol, 10 mM DTT, 0.5% Triton X-100, 1% Igepal and protease inhibitors (Sigma). For co-immunoprecipitation, anti-HA beads (Roche) or anti-GFP-TRAP-A beads (Chromotek) were incubated with total proteins and then washed with the extraction buffer. Proteins were fractioned on SDS-PAGE, transferred onto PVDF membranes (Bio-Rad) and then detected using specific antibodies. […] Epitope-tagged proteins were detected with a peroxidase-conjugated anti-HA-HRP (Santa Cruz); mouse monoclonal anti-GFP antibodies (AMS); or anti-HRP antibodies (Santa Cruz). The secondary anti-rabbit-HRP antibodies (Sigma) were used when appropriate. Immunodetection was performed with ECL chemiluminescence reagent (GE).

Binder	binding result (EFR-YFPc / EFR-YFPn)	binding result (FLS2-YFPc / FLS2-YFPn)	binding result (BAK1-HA)
B1	binds	binds	–
B2	–	–	no binding
